# Reference: patent publication US20210388087A1 (Chugai, published 2021)
# Biological target: T1, CD3 epsilon homodimer protein (UniProt P07766 23-126)
# T1 construct: also called CD3 (CD3 epsilon)
# Assay: SPR Biacore T200, CD3e homodimer on chip, vs unaltered GLS3000 antibody
# T1 sequence (P07766 23-126): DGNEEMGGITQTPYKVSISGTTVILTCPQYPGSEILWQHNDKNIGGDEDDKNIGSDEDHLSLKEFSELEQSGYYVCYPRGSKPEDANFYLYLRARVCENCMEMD
row,Binder,ratio of amounts bound (Z=Y/X)
1,"GLS3000 V94A (antibody, name in Kabat numbering, V domains shown, one-arm IgG as m2) VH: QVQLVESGGGVVQPGRSLRLSCAASGFTFSNAWMHWVRQAPGKGLEWVAQIKAKSNNYATYYAESVKGRFTISRDDSKNSLYLQMNSLKTEDTAVYYCRYVHYGAYYGVDAWGQGTTVTVSS VL: DIVMTQSPLSLPVTPGEPASISCRSSQSLVHSNRNTYLHWYQQKPGQAPRLLIYKVSNRFSGVPDRFSGSGSGTDFTLKISRVEAEDVGVYYCGQGTQAPYTFGQGTKLEIK",1.05
2,"GLS3000 V94K (antibody, name in Kabat numbering, V domains shown, one-arm IgG as m2) VH: QVQLVESGGGVVQPGRSLRLSCAASGFTFSNAWMHWVRQAPGKGLEWVAQIKAKSNNYATYYAESVKGRFTISRDDSKNSLYLQMNSLKTEDTAVYYCRYVHYGAYYGVDAWGQGTTVTVSS VL: DIVMTQSPLSLPVTPGEPASISCRSSQSLVHSNRNTYLHWYQQKPGQAPRLLIYKVSNRFSGVPDRFSGSGSGTDFTLKISRVEAEDVGVYYCGQGTQKPYTFGQGTKLEIK",0.57
3,"GLS3000 V94D (antibody, name in Kabat numbering, V domains shown, one-arm IgG as m2) VH: QVQLVESGGGVVQPGRSLRLSCAASGFTFSNAWMHWVRQAPGKGLEWVAQIKAKSNNYATYYAESVKGRFTISRDDSKNSLYLQMNSLKTEDTAVYYCRYVHYGAYYGVDAWGQGTTVTVSS VL: DIVMTQSPLSLPVTPGEPASISCRSSQSLVHSNRNTYLHWYQQKPGQAPRLLIYKVSNRFSGVPDRFSGSGSGTDFTLKISRVEAEDVGVYYCGQGTQDPYTFGQGTKLEIK",0.89
4,"GLS3000 V94G (antibody, name in Kabat numbering, V domains shown, one-arm IgG as m2) VH: QVQLVESGGGVVQPGRSLRLSCAASGFTFSNAWMHWVRQAPGKGLEWVAQIKAKSNNYATYYAESVKGRFTISRDDSKNSLYLQMNSLKTEDTAVYYCRYVHYGAYYGVDAWGQGTTVTVSS VL: DIVMTQSPLSLPVTPGEPASISCRSSQSLVHSNRNTYLHWYQQKPGQAPRLLIYKVSNRFSGVPDRFSGSGSGTDFTLKISRVEAEDVGVYYCGQGTQGPYTFGQGTKLEIK",0.48
5,"GLS3000 V94H (antibody, name in Kabat numbering, V domains shown, one-arm IgG as m2) VH: QVQLVESGGGVVQPGRSLRLSCAASGFTFSNAWMHWVRQAPGKGLEWVAQIKAKSNNYATYYAESVKGRFTISRDDSKNSLYLQMNSLKTEDTAVYYCRYVHYGAYYGVDAWGQGTTVTVSS VL: DIVMTQSPLSLPVTPGEPASISCRSSQSLVHSNRNTYLHWYQQKPGQAPRLLIYKVSNRFSGVPDRFSGSGSGTDFTLKISRVEAEDVGVYYCGQGTQHPYTFGQGTKLEIK",0.78
6,"GLS3000 V94I (antibody, name in Kabat numbering, V domains shown, one-arm IgG as m2) VH: QVQLVESGGGVVQPGRSLRLSCAASGFTFSNAWMHWVRQAPGKGLEWVAQIKAKSNNYATYYAESVKGRFTISRDDSKNSLYLQMNSLKTEDTAVYYCRYVHYGAYYGVDAWGQGTTVTVSS VL: DIVMTQSPLSLPVTPGEPASISCRSSQSLVHSNRNTYLHWYQQKPGQAPRLLIYKVSNRFSGVPDRFSGSGSGTDFTLKISRVEAEDVGVYYCGQGTQIPYTFGQGTKLEIK",0.66
7,"GLS3000 V94F (antibody, name in Kabat numbering, V domains shown, one-arm IgG as m2) VH: QVQLVESGGGVVQPGRSLRLSCAASGFTFSNAWMHWVRQAPGKGLEWVAQIKAKSNNYATYYAESVKGRFTISRDDSKNSLYLQMNSLKTEDTAVYYCRYVHYGAYYGVDAWGQGTTVTVSS VL: DIVMTQSPLSLPVTPGEPASISCRSSQSLVHSNRNTYLHWYQQKPGQAPRLLIYKVSNRFSGVPDRFSGSGSGTDFTLKISRVEAEDVGVYYCGQGTQFPYTFGQGTKLEIK",0.71
8,"GLS3000 V94E (antibody, name in Kabat numbering, V domains shown, one-arm IgG as m2) VH: QVQLVESGGGVVQPGRSLRLSCAASGFTFSNAWMHWVRQAPGKGLEWVAQIKAKSNNYATYYAESVKGRFTISRDDSKNSLYLQMNSLKTEDTAVYYCRYVHYGAYYGVDAWGQGTTVTVSS VL: DIVMTQSPLSLPVTPGEPASISCRSSQSLVHSNRNTYLHWYQQKPGQAPRLLIYKVSNRFSGVPDRFSGSGSGTDFTLKISRVEAEDVGVYYCGQGTQEPYTFGQGTKLEIK",0.5

# Continued, values first:
row,ratio of amounts bound (Z=Y/X),Binder
1,0.93,"GLS3000 V94S (antibody, name in Kabat numbering, V domains shown, one-arm IgG as m2) VH: QVQLVESGGGVVQPGRSLRLSCAASGFTFSNAWMHWVRQAPGKGLEWVAQIKAKSNNYATYYAESVKGRFTISRDDSKNSLYLQMNSLKTEDTAVYYCRYVHYGAYYGVDAWGQGTTVTVSS VL: DIVMTQSPLSLPVTPGEPASISCRSSQSLVHSNRNTYLHWYQQKPGQAPRLLIYKVSNRFSGVPDRFSGSGSGTDFTLKISRVEAEDVGVYYCGQGTQSPYTFGQGTKLEIK"
2,1.05,"GLS3000 V94N (antibody, name in Kabat numbering, V domains shown, one-arm IgG as m2) VH: QVQLVESGGGVVQPGRSLRLSCAASGFTFSNAWMHWVRQAPGKGLEWVAQIKAKSNNYATYYAESVKGRFTISRDDSKNSLYLQMNSLKTEDTAVYYCRYVHYGAYYGVDAWGQGTTVTVSS VL: DIVMTQSPLSLPVTPGEPASISCRSSQSLVHSNRNTYLHWYQQKPGQAPRLLIYKVSNRFSGVPDRFSGSGSGTDFTLKISRVEAEDVGVYYCGQGTQNPYTFGQGTKLEIK"
3,0.66,"GLS3000 V94R (antibody, name in Kabat numbering, V domains shown, one-arm IgG as m2) VH: QVQLVESGGGVVQPGRSLRLSCAASGFTFSNAWMHWVRQAPGKGLEWVAQIKAKSNNYATYYAESVKGRFTISRDDSKNSLYLQMNSLKTEDTAVYYCRYVHYGAYYGVDAWGQGTTVTVSS VL: DIVMTQSPLSLPVTPGEPASISCRSSQSLVHSNRNTYLHWYQQKPGQAPRLLIYKVSNRFSGVPDRFSGSGSGTDFTLKISRVEAEDVGVYYCGQGTQRPYTFGQGTKLEIK"
4,0.76,"GLS3000 V94Q (antibody, name in Kabat numbering, V domains shown, one-arm IgG as m2) VH: QVQLVESGGGVVQPGRSLRLSCAASGFTFSNAWMHWVRQAPGKGLEWVAQIKAKSNNYATYYAESVKGRFTISRDDSKNSLYLQMNSLKTEDTAVYYCRYVHYGAYYGVDAWGQGTTVTVSS VL: DIVMTQSPLSLPVTPGEPASISCRSSQSLVHSNRNTYLHWYQQKPGQAPRLLIYKVSNRFSGVPDRFSGSGSGTDFTLKISRVEAEDVGVYYCGQGTQQPYTFGQGTKLEIK"
5,0.44,"GLS3000 V94M (antibody, name in Kabat numbering, V domains shown, one-arm IgG as m2) VH: QVQLVESGGGVVQPGRSLRLSCAASGFTFSNAWMHWVRQAPGKGLEWVAQIKAKSNNYATYYAESVKGRFTISRDDSKNSLYLQMNSLKTEDTAVYYCRYVHYGAYYGVDAWGQGTTVTVSS VL: DIVMTQSPLSLPVTPGEPASISCRSSQSLVHSNRNTYLHWYQQKPGQAPRLLIYKVSNRFSGVPDRFSGSGSGTDFTLKISRVEAEDVGVYYCGQGTQMPYTFGQGTKLEIK"
6,1.26,"GLS3000 V94P (antibody, name in Kabat numbering, V domains shown, one-arm IgG as m2) VH: QVQLVESGGGVVQPGRSLRLSCAASGFTFSNAWMHWVRQAPGKGLEWVAQIKAKSNNYATYYAESVKGRFTISRDDSKNSLYLQMNSLKTEDTAVYYCRYVHYGAYYGVDAWGQGTTVTVSS VL: DIVMTQSPLSLPVTPGEPASISCRSSQSLVHSNRNTYLHWYQQKPGQAPRLLIYKVSNRFSGVPDRFSGSGSGTDFTLKISRVEAEDVGVYYCGQGTQPPYTFGQGTKLEIK"
7,0.44,"GLS3000 V94L (antibody, name in Kabat numbering, V domains shown, one-arm IgG as m2) VH: QVQLVESGGGVVQPGRSLRLSCAASGFTFSNAWMHWVRQAPGKGLEWVAQIKAKSNNYATYYAESVKGRFTISRDDSKNSLYLQMNSLKTEDTAVYYCRYVHYGAYYGVDAWGQGTTVTVSS VL: DIVMTQSPLSLPVTPGEPASISCRSSQSLVHSNRNTYLHWYQQKPGQAPRLLIYKVSNRFSGVPDRFSGSGSGTDFTLKISRVEAEDVGVYYCGQGTQLPYTFGQGTKLEIK"
